Results on 10 sequences are retold here after patent US20110207221.

Holding throughout (test): cell_activity
Data set [1] has as its system ZFN 16245 (POU5F1) (synthetic). The settings on record: K562; two ZFN pairs co-transfected, deletion only with both.
Data set [2] deals with ZFN 11177 (BAK del. B) (synthetic). Particulars: CHO-K1; BAK deletion B, two ZFN pairs.
Data set [3] has as its system ZFN 10344 (BAK) (synthetic). The settings on record: CHO-K1; BAK deletion, two ZFN pairs.
Data set [4] has as its system ZFN 16248 (POU5F1) (synthetic). Particulars: K562; two ZFN pairs co-transfected.
Data set [5] concerns ZFN 16247 (POU5F1) (synthetic). The settings on record: K562; two ZFN pairs co-transfected.
Data set [6] deals with ZFN 11183 (BAK) (synthetic). Particulars: CHO-K1; BAK deletion, two ZFN pairs.
Data set [7] concerns ZFN 10311 (BAK) (synthetic). The settings on record: CHO-K1; BAK deletion, two ZFN pairs.
For data set [8], the system named is ZFN 10317 (BAK del. A) (synthetic). Particulars: CHO-K1; BAK deletion A, two ZFN pairs.
Data set [9] relates to ZFN 10342 (BAK) (synthetic). Particulars: CHO-K1; BAK deletion, two ZFN pairs.
Data set [10] concerns ZFN 16246 (POU5F1) (synthetic). Particulars: K562; two ZFN pairs co-transfected.

Take “AAGCTGGTCTGGTGGCTAGGTAGATCCT (double strand) [POU5F1 site of 16245]”: in data set [1], the activity (% cells with deletion) was determined as 4.
Sequence “AGGATTAGGAGGATGGGATTTGGCACTG (double strand) [BAK site of 11177]” registered an activity (% cells with deletion) in data set [2] of 1.
As to “ATCAGGAAGAGGCTGGGTGTCACAGCGT (double strand) [BAK site of 10344]”, the activity (% cells with deletion) in data set [3] worked out at 1.
Turning to “ATGAGTCAGTGAACAGGGAATGGGTGAA (double strand) [POU5F1 site of 16248]”, the activity (% cells with deletion) in data set [4] is 4.
“ATGTAACAAAGGACTACTCTTCCCCCAG (double strand) [POU5F1 site of 16247]”: in data set [5], the activity (% cells with deletion) was 4.
“CACGGGCCCAGGGTGGGGCAGAAAGCCC (double strand) [BAK site of 11183]” had an activity (% cells with deletion) in data set [6] of 1.
Take “CAGCACGGGCCCAGGGTGGGGCAGAAAG (double strand) [BAK site of 10311]”: the activity (% cells with deletion) in data set [7] amounted to 1.
“GCCAGGATTAGGAGGATGGGATTTGGCA (double strand) [BAK site of 10317]” came in with an activity (% cells with deletion) in data set [8] of 1.
“GCGGCCAGGCCAAGGCAGACTTTCTGAC (double strand) [BAK site of 10342]”: in [9], the activity (% cells with deletion) stood at 1.
In [10], “GGGCTCTGGAAGGCCCACTTCAGGGCCT (double strand) [POU5F1 site of 16246]” yielded an activity (% cells with deletion) of 4.
